Measured values as given in US20090304686A1 (UNIVERSOTAIR MEDISCH CENTRUM UTRECHT, published 2009).

T1: human LAIR-1 (hLAIR-1a) expressed on cells (human, UniProt Q6GTX8 22-287)
T1 construct: whole, on cells; In the precipitation with collagen I fibrils it stood in cell lysates (transfected K562, PBMC)
T1 sequence (looked up): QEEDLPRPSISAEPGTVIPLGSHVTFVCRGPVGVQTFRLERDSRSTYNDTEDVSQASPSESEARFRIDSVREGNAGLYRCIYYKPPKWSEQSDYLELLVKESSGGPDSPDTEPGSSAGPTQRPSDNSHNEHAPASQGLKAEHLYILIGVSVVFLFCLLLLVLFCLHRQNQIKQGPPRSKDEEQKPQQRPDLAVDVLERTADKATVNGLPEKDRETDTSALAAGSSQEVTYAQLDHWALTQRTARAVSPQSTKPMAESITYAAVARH

B1: Collagen II Toolkit peptide 49 (peptide)
peptide: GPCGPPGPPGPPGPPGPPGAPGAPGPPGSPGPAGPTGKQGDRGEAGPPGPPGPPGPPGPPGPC
modifications: O = hydroxyproline as printed; C-terminal amide (-NH2)
B2: Collagen III Toolkit peptide 51 (peptide)
peptide: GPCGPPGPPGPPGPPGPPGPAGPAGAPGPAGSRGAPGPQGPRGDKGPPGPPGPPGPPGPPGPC
modifications: O = hydroxyproline as printed; C-terminal amide (-NH2)
notes: Homotrimeric triple-helical peptide; also called III-51; collagen III peptide 51
B3: Collagen III Toolkit peptide 5 (peptide)
peptide: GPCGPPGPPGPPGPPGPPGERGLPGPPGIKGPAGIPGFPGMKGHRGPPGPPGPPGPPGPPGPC
modifications: O = hydroxyproline as printed; C-terminal amide (-NH2)
B4: Collagen III Toolkit peptide 38 (peptide)
peptide: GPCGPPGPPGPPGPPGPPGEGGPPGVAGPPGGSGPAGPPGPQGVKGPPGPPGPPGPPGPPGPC
modifications: O = hydroxyproline as printed; C-terminal amide (-NH2)
notes: Homotrimeric triple-helical peptide; also called III-38; collagen III peptide 38
B5: Collagen II Toolkit peptide 30 (peptide)
peptide: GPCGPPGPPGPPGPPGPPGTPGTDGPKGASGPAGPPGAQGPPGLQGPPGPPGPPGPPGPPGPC
modifications: O = hydroxyproline as printed; C-terminal amide (-NH2)
notes: Homotrimeric triple-helical peptide; also called II-30; human collagen II peptide 30
B6: Collagen II Toolkit peptide 42 (peptide)
peptide: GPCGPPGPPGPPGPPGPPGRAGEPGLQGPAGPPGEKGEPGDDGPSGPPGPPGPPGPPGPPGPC
modifications: O = hydroxyproline as printed; C-terminal amide (-NH2)
B7: Collagen II Toolkit peptide 1 (peptide)
peptide: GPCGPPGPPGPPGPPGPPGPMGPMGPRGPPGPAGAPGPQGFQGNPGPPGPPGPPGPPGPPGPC
modifications: O = hydroxyproline as printed; C-terminal amide (-NH2)
B8: Collagen III Toolkit peptide 44 (peptide)
peptide: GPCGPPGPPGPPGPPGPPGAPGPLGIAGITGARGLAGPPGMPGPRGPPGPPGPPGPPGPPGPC
modifications: O = hydroxyproline as printed; C-terminal amide (-NH2)
notes: Homotrimeric triple-helical peptide; also called III-44; collagen III peptide 44
B9: Collagen III Toolkit peptide 1 (peptide)
peptide: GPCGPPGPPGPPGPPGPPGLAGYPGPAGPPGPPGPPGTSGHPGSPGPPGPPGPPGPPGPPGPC
modifications: O = hydroxyproline as printed; C-terminal amide (-NH2)
notes: Homotrimeric triple-helical peptide; also called III-1; collagen III peptide 1
B10: Collagen III Toolkit peptide 32 (peptide)
peptide: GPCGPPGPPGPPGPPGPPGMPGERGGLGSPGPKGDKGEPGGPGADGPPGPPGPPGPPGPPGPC
modifications: O = hydroxyproline as printed; C-terminal amide (-NH2)

molecular target: hLAIR-1-CD3ζ chimera on 2B4 NFAT-GFP reporter cells (human, UniProt Q6GTX8 22-165); assay: cell-based or functional assay

GFP expression of 2B4 NFAT-GFP reporter cells	Binder
> 10 % of cells GFP-positive	B1
> 10 % of cells GFP-positive	B2
> 10 % of cells GFP-positive	B3
> 10 % of cells GFP-positive	B4
> 10 % of cells GFP-positive	B5
> 10 % of cells GFP-positive	B6
> 10 % of cells GFP-positive	B7
> 10 % of cells GFP-positive	B8
> 10 % of cells GFP-positive	B9
> 10 % of cells GFP-positive	B10

molecular target: T1, human LAIR-1 (hLAIR-1a) expressed on …; assay: adhesion of K562 cells expressing hLAIR-1 to immobilized trimeric peptide
Text: A: K562 cell adhesion assay. […] Percentage of adhering cells relative to input is shown.

percentage of adhering cells relative to input [%]	Binder
> 10	B2
> 10	B4
> 10	B5
> 10	B8
> 10	B9
